Laboratory results reported in US20250064958A1 (Eli Lilly, published 2025).

Tests used:
Cynomolgous TfR ECD = molecular target: T1, Cynomolgous TfR ECD (Cynomolgus); experiment: SPR, Biacore 8K, 37 C, TfR ECD immobilized on CM4 chip, TBP as analyte, 2-state binding model, n = 3
T1 chain: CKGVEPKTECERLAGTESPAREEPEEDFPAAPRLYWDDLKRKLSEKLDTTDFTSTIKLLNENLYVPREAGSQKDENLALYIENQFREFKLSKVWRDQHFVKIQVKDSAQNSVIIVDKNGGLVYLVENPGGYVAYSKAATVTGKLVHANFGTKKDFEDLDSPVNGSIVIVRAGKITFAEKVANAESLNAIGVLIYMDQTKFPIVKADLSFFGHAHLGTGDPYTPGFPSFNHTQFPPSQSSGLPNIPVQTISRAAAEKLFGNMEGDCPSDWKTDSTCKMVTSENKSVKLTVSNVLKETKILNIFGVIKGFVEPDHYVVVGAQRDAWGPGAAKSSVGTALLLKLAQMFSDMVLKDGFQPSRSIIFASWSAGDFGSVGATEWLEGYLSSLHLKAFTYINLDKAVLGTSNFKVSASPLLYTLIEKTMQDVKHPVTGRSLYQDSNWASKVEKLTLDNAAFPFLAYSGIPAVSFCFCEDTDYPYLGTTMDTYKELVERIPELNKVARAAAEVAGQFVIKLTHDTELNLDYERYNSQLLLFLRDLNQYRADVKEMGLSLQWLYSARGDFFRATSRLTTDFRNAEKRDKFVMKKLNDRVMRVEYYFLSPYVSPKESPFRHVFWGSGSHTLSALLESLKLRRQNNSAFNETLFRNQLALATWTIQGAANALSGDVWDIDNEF
Method: (§1) Target human and Cynomolgous TfR ECDs were immobilized on a CM4 chip (Cytiva P/N 29104989) using standard NHS-EDC amine coupling. The TfR binding proteins were prepared at a final concentration of 0.3, 0.1, 0.033, 0.01, 0.0033, 0.001, 0.00033, 0.0001 μM respectively by dilution of stock solution into running buffer.
(§2) Binding analysis was performed in a multi-cycle kinetics manner. Each analysis cycle consists of (1) injection of the lowest to highest concentration proteins over all Fc at 50 μL/min for 140 seconds followed by return to buffer flow for 400 seconds to monitor dissociation phase; (2) regeneration of chip surfaces with injection of 3M magnesium chloride, for 30 seconds at 100 μL/min over all cells; and (3) equilibration of chip surfaces with a 50 μL (30-sec) injection of HBS-EP+. Data were processed using standard double-referencing and fit to a 2-state binding model using Biacore 8K Evaluation software, to determine the association rate (kₒₙ, M⁻¹s⁻¹ units), dissociation rate (koff, s⁻¹ units), and Rₘₐₓ (RU units). The equilibrium dissociation constant (KD) is calculated from the relationship KD=koff/kₒₙ, and is in molar units.

human TfR ECD = molecular target: T2, human TfR ECD (human, UniProt P02786 89-760); experiment: as above
T2 construct: extracellular domain; also called human Transferrin Receptor 1 extracellular domain
Method: as §1, §2

Kd (Cynomolgous TfR ECD): 300 nM
Kd (human TfR ECD): 154 nM
B1: TBP4 (One Arm Heteromab 1, A378C) (antibody, human IgG4 S228P, kappa, F234A L235A)
heavy: EVQLVESGGGLVKPGGSLRLSCVASGFTFSSYSMNWVRQAPGKGLEWVSSISSSSSYIYYADSVKGRFTISRDNAKNSLYLQMNSLRAEDTAVYYCARRHGYSNSDAFDNWGQGTLVTVSSASTKGPSVFPLAPCSRSTSESTAALGCLVKDYFPEPVTVSWNSGALTSGVHTFPAVLQSSGLYSLSSVVTVPSSSLGTKTYTCNVDHKPSNTKVDKRVESKYGPPCPPCPAPEAAGGPSVFLFPPKPKDTLMISRTPEVTCVVVDVSQEDPEVQFNWYVDGVEVHNAKTKPREEQFNSTYRVVSVLTVLHQDWLNGKEYKCKVSNKGLPSSIEKTISKAKGQPREPQVSTLPPSQEEMTKNQVSLMCLVYGFYPSDICVEWESNGQPENNYKTTPPVLDSDGSFFLYSVLTVDKSRWQEGNVFSCSVMHEALHNHYTQKSLSLSLG
light: DIQMTQSPSAMSASVGDRVTITCRASQGISHYLVWFQQKPGKVPKRLIYAASSLQSGVPSRFSGSGSGTEFTLTISSLQPEDFATYYCLQHNSYPWTFGQGTKVEIKRTVAAPSVFIFPPSDEQLKSGTASVVCLLNNFYPREAKVQWKVDNALQSGNSQESVTEQDSKDSTYSLSSTLTLSKADYEKHKVYACEVTHQGLSSPVTKSFNRGEC
chain: ESKYGPPCPPCPAPEAAGGPSVFLFPPKPKDTLMISRTPEVTCVVVDVSQEDPEVQFNWYVDGVEVHNAKTKPREEQFNSTYRVVSVLTVLHQDWLNGKEYKCKVSNKGLPSSIEKTISKAKGQPREPQVYTLPPSQGDMTKNQVQLTCLVKGFYPSDICVEWESNGQPENNYKTTPPVLDSDGSFFLASRLTVDKSRWQEGNVFSCSVMHEALHNHYTQKSLSLSLG
notes: One-arm heteromab, IgG4 PAA, monovalent for human TfR; also called OAH1
